Results on one protein are retold here after paper PMC8309402, “Evolutionary Implications of a Peroxidase with High Affinity for Cinnamyl Alcohols from Physcomitrium patens, a Non-Vascular Plant” (Plants, 2021).

Broadly, the Km is the substrate concentration at which the rate is half of its maximum. A word on the kcat: it is the number of substrate molecules converted per active site and unit of time at saturation. What is called kcat/Km is the second-order rate constant that governs catalysis at low substrate concentration.

Substrate in series [1]: COc1cc(/C=C/CO)cc(OC)c1O
Nature of the series: purified protein. The series is classed as biochemical, Physcomitrium patens. The following applies: 0.5 mM H2O2 (saturating), 50 mM sodium acetate pH 5.0, 1-110 μM substrate.

Substrate in series [2]: COc1cc(/C=C/CO)ccc1O
Nature of the series: purified protein. The series is classed as biochemical, Physcomitrium patens. The following applies: 0.5 mM H2O2 (saturating), 50 mM sodium acetate pH 5.0, 5-100 μM substrate.

B1: PpaPrx19 (Physcomitrium patens) (protein)
chain: TTDFYAKSCPRIHSIVKAEIKKAVNVEKRMAASLIRLHFHDCFVHGCDGSILLDSIPGMDSEKFAPPNDRSARGYEAIDAIKVALEKACPRTVSCADILAIAYRDSAVEVGLVPEYPVPFGRRDSLRAAPIAEVNLRLPGPDFDISTLKASFANQSLDERDLVALSGAHTIGRVRCQFVRLFLNDPGTNADFKKELARLCAPTVDAFTLQNLDLKTPDKFDNNYYKNLRRGEGIIRSDQVLWSSEGTHQKITKDFAENQENFFRQFIESSIKMGKIKPPPGSPSEIRLNCHQANPRPLIEQVVAVE
notes: native, purified from gametophores (ammonium sulfate, phenyl Sepharose, SP Sepharose); mature secreted protein, 332 aa precursor incl; 26 aa N-terminal signal peptide (predicted); 46 kDa lipase (XP_001755452) co-purified
In the case of B1, in “purified protein [1]”, the Km was found to be 20.8 µM, the kcat was determined as 281 s⁻¹ and the kcat/Km came out at 1.35e+07 M⁻¹ s⁻¹. Also, in the series “purified protein [2]”, the Michaelis constant (Km) is 16.7 µM, the kcat is 3940 s⁻¹ and the kcat/Km was found to be 2.36e+08 M⁻¹ s⁻¹.
